Assay [1] has as its target human STEAP1 (human). The assay can be described thus: FACS, LNCaP-X1.2 cells, bivalent.
Assay [2] addresses human STEAP1 (human). The assay can be described thus: KinExA, monovalent, live 293 cells. (In general: A kinetic exclusion assay measures how much of one partner remains free in solution.)
The next assay has as its target cynomolgus STEAP1 (cynomolgus monkey). The assay can be described thus: KinExA, monovalent, live 293 cells.

The term EC50 denotes the concentration giving half of the maximal effect. Lower therefore signals an effect from little substance. The Kd is the free concentration of one partner at which half of the binding sites on the other are occupied at equilibrium, for simple one-to-one binding. Lower therefore signals higher affinity.

Sequence of human STEAP1 (human) (chain, as listed by the source): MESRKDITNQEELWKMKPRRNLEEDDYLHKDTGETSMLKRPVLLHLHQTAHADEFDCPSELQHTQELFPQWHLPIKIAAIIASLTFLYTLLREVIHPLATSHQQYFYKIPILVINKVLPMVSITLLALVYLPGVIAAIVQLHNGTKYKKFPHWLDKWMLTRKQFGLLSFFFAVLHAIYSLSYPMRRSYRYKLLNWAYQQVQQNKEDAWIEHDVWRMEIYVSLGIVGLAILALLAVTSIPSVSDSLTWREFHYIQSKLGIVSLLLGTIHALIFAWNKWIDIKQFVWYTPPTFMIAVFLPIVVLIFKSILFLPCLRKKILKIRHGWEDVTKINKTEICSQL
Sequence of cynomolgus STEAP1 (cynomolgus monkey) (chain, as listed by the source): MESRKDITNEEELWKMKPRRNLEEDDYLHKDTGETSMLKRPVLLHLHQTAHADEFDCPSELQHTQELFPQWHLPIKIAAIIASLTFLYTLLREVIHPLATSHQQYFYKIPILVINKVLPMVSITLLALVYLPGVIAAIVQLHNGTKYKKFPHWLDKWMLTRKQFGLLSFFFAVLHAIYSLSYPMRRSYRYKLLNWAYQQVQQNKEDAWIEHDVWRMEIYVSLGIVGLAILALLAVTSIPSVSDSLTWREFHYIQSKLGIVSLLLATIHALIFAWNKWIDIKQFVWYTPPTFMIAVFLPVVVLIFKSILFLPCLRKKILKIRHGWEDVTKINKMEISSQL

B1: vandortuzumab (antibody, V domains shown)
VH: EVQLVESGGGLVQPGGSLRLSCAVSGYSITSDYAWNWVRQAPGKGLEWVGYISNSGSTSYNPSLKSRFTISRDTSKNTLYLQMNSLRAEDTAVYYCARERNYDYDDYYYAMDYWGQGTLVTVSS
VL: DIQMTQSPSSLSASVGDRVTITCKSSQSLLYRSNQKNYLAWYQQKPGKAPKLLIYWASTRESGVPSRFSGSGSGTDFTLTISSLQPEDFATYYCQQYYNYPRTFGQGTKVEIK
With B1, it took 3.5 nM to reach a half-maximal effect with human STEAP1 [1] (EC50).

B2: huAb44.v6.05-40G5c (STEAP1 arm) (antibody, V domains shown)
VH: EVQLVESGGGLVQPGGSLRLSCAASGFTFSDHYMAWVRQAPGKGLVWVSYIDYDGGSTSYGDSVKGRFTISRDNAKSTLYLQMNSLRAEDTAVYYCARRSGFYHVGYAMNAWGQGTTVTVSS
VL: DIVLTQTPLSLSVTPGQPASISCRSSQSLEYSDGYTYLEWYLQKPGQSPQLLIYGVSNRFSGVPDRFSGSGSGTDFTLKISRVEAEDVGVYYCFQATHDPLTFGGGTKVEIK
Consider B2, for which the Kd with human STEAP1 [2] was determined as 29 nM; in the assay with cynomolgus STEAP1, 14 nM.

B3: huAb44.v6.05 (antibody, V domains shown)
VH: EVQLVESGGGLVQPGGSLRLSCAASGFTFSDHYMAWVRQAPGKGLVWVSYIDYDGGSTSYGDSVKGRFTISRDNAKSTLYLQMNSLRAEDTAVYYCARRSGFYHVGYAMNAWGQGTTVTVSS
VL: DIVLTQTPLSLSVTPGQPASISCRSSQSLEYSDGYTYLEWYLQKPGQSPQLLIYGVSNRFSGVPDRFSGSGSGTDFTLKISRVEAEDVGVYYCFQATHDPLTFGGGTKVEIK
Consider B3, for which, in the assay with human STEAP1 [1], the midpoint of the response, the EC50, lay at 1.9 nM.

For the origin of these results see US20260365758 (published 2026).
